The results in this text go back to PMC7868338, “Identification of Functional Interactome of Colistin Resistance Protein MCR-1 in Escherichia coli” (Frontiers in Microbiology, 2020).

The koff is the first-order rate constant of dissociation. Higher therefore signals fast dissociation. What is called Kd is the constant that tells how readily two partners part at equilibrium. A high value points to weaker binding.

The target in assay [1] is T1, SspB protein (SPR analyte) (E. coli, UniProt P0AFZ3 1-165).
T1 chain: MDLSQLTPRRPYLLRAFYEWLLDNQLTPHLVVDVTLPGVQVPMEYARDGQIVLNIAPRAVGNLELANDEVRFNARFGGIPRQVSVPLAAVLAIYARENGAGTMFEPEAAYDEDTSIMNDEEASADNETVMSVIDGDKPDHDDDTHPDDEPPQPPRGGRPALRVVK
The experiment in a line: SPR. On the technique in general: In SPR one partner is held on a chip, and binding of the other changes the refractive index at the surface.

Assay [2] has as its target T2, MCR-1-200 catalytic domain protein (E. coli (strain SHP45), UniProt A0A0R6L508 201-541).
T2 construct: catalytic domain of MCR-1, 341 amino acids; also called catalytic domain of MCR-1; MCR-1 catalytic protein; source: E. coli BL21 (DE3) (pET28a-mcr-1-200), IPTG-induced; in lysate (1% DDM) for the Co-IP; purified (Ni-NTA) for SPR
T2 sequence: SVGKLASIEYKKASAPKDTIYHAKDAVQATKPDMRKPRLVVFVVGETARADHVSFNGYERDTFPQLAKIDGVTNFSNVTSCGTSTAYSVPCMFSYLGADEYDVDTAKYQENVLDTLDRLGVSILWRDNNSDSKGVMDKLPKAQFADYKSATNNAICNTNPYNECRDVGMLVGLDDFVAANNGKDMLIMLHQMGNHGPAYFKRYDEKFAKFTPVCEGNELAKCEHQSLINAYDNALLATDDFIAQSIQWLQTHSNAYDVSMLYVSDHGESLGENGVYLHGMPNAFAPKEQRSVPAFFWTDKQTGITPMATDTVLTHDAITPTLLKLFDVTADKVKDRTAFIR
The experiment in a line: SPR; Reichert 4SPR; MCR-1 or MCR-1-200 in PBS directly immobilised on a Planar Mixed SAM chip; SspB 0.156-5 μM (twofold dilutions) in PBST pH 7.4, 0.05% Tween-20. As to conditions: both partners purified.

For assay [3], the target named is T3, MCR-1 full-length protein (E. coli (strain SHP45), UniProt A0A0R6L508 1-541).
T3 construct: MCR-1, phosphoethanolamine transferase; gene amplified from E. coli strain SHP45; 541 amino acids; also called His6-MCR-1; source: E. coli BL21 (DE3) (pET28a-mcr-1), IPTG-induced; in lysate (1% DDM) for the Co-IP; purified (Ni-NTA) for SPR
T3 sequence: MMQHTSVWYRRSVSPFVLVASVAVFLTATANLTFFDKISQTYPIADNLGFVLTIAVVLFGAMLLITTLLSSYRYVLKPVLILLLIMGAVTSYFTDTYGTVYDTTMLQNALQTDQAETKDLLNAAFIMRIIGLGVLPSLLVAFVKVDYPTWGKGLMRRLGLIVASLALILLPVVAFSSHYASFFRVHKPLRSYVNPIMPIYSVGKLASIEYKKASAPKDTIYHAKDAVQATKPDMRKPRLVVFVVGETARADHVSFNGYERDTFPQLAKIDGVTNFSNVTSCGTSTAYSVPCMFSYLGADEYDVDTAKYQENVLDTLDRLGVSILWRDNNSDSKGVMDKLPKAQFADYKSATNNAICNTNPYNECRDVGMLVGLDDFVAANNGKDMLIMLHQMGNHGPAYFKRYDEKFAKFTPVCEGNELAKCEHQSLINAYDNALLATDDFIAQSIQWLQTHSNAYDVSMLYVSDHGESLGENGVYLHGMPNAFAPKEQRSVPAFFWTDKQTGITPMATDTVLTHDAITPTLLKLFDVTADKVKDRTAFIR
Described as above. As to conditions: both partners purified.

B1: MCR-1 full-length protein (enzyme)
chain: T3 sequence
Consider B1, for which, in assay [1], the koff was determined as 0.325 s⁻¹.

B2: MCR-1-200 catalytic domain protein (domain or fragment)
chain: T2 sequence
B2 had a koff in assay [1] of 0.0106 s⁻¹.

B3: SspB protein (SPR analyte) (natural protein)
chain: T1 chain
notes: Stringent starvation protein B, E. coli; also called Stringent starvation protein B
With B3, the Kd came out at 5.13 µM in assay [2] and 140 µM in assay [3].
